# Patent publication US20230039694A1, “H[…] REDUCTASE AND USES THEREOF” (Southwest University, priority 2019, published 2023)
# Experiments:
# [1] = system: Atropa belladonna hairy roots; test: Content of hyoscyamine in transgenic Atropa belladonna hairy roots with HAR over-expression (HPLC); type: cell-based
# Source text: In order to study the effect of an HAR gene on tropane alkaloids in Atropa belladonna, a pericycle-specific high-expression vector PMT promoter::HAR was constructed, and an original plasmid was pBI121. Firstly, a 35S promoter on the original plasmid pBI121 was substituted with an AbPMT promoter by using digestion sites HindIII and Xba I; and the AbPMT promoter was subjected to PCR amplification with Atropa belladonna cDNA as a template and sequences as shown in SEQ ID NO. 7 and SEQ ID NO. 8 as primers. Then a GUS gene on the original plasmid was substituted with the HAR gene by using digestion sites BamHI and SacI; and the HAR gene was subjected to PCR amplification with Atropa belladonna cDNA as a template and sequences as shown in SEQ ID NO. 9 and SEQ ID NO. 10 as primers to obtain an HAR plant over-expression vector PMT promoter:: HAR. The primer sequences used were as follows: […]
# The hairy roots were harvested after being subjected to shaking culture for 30 d in an MS liquid medium, and a material was freeze-dried to a constant weight in a freeze dryer. […] The alkaloids were dissolved with 1 mL of liquid chromatography grade methanol; the solution was filtered with a filter membrane of 0.22 μm; the content of the alkaloids was determined with HPLC; and a result was an average of three repeated experiments, where an error bar indicated a standard deviation. […]
# [2] = Verification on enzyme activity of HAR: hyoscyamine aldehyde reduction reaction, product identified by high-resolution mass spectrometry; type: biochemical, Atropa belladonna; details: phosphate buffer pH 6.4, 0.2 mM NADPH-4Na, 1 mM hyoscyamine aldehyde, 30 μg HAR protein, 1 h at 37.5° C.
# Experimental: The constructed pET28a-HAR plasmid was converted to a prokaryotic expression stain BL21, and a positive clone was screened with PCR to obtain prokaryotic expression engineering bacteria BL21-pET28a-HAR. 100 μL of BL21-pET28a-HAR bacterial liquid was inoculated to a 30 mL of LB liquid medium containing 100 mg/L kanamycin for overnight culture at 37° C. and 200 rpm. Then, a product was respectively inoculated to 400 mL of LB liquid medium according to a ratio of 1 to 50 for activated culture at 37° C. and 200 rpm, and when OD600 was about 0.6, IPTG was added until a final concentration reached 1 mM. Culture was continued for 6 h at 37° C. and 200 rpm. The harvested bacterial liquid was subjected to centrifugation at 8000 rpm, and a supernatant was removed. Then precipitate bacteria were resuspended with a phosphate buffer, subjected to ultrasonication and then purified with a Ni-NTA filler from GE Company to obtain an HAR protein.
# A hyoscyamine aldehyde reduction reaction system catalyzed by the HAR was as follows: a phosphate buffer (pH 6.4), 0.2 mM NADPH-4Na, 1 mM hyoscyamine aldehyde and 30 μg of HAR protein were incubated for 1 h at 37.5° C., and a reaction product was identified using a high-resolution mass spectrometer. […]
molecule,measurement,setting,value
"HAR: Hyoscyamine aldehyde reductase from Atropa belladonna, amino acid sequence SEQ ID NO. 4, encoded by SEQ ID NO. 3 (protein, listed as Atropa belladonna) MDSSGVLSPFTFSRRATGEEDVRLKVLYCGICHSDLGCIKNEWGWCSYPLVPGHEIVGIATEVGSKVTKFKVGDRVGVGCMVGSCGTCQNCTQNQESYCPEVIMTCASAYPDGTPTYGGFSNQMVANEKFVIRIPNSLPLDAAAPLLCAGSTVYSAMKFYGLCSQGLHLGVVGLGGLGHVAVKFAKAFGMKVTVISTSLGKKEEAINQLGADSFLINTDTEQMQGAMEVMDGIIDTVSALHPIEPLLGLLKSHQGKLIIVGLPNKQPELPVFSLINGRKMIGGSAVGGVKETQEMIDFAAEHNITADIEIVPMDYVNTAMERLEKGDVKFRFVIDVENTLVAAQT",content of hyoscyamine relative to non-transgenic Atropa belladonna hairy roots,"[1]; AbHAR over-expression hairy roots versus non-transgenic hairy roots, same period",1.83-2.58 times
same,average content of hyoscyamine in hairy roots,"[1]; AbHAR over-expression hairy roots, 30 d shaking culture in MS liquid medium, ordinary hairy roots 2.32 mg/g DW",4.24-5.98 mg/g DW
same,product of the hyoscyamine aldehyde reduction reaction catalyzed by the HAR,[2],a product of the hyoscyamine aldehyde reduction reaction catalyzed by the HAR was hyoscyamine
